According to the supplement of paper PMC9112550, “Optimization of the antimicrobial peptide Bac7 by deep mutational scanning” (BMC Biology, 2022):

System: Escherichia coli TOP10
Experiment: shrunken log2 fold change of peptide-encoding DNA abundance (4.5 h post-induction vs induction); higher = less antimicrobial activity (less host growth inhibition)
Conditions: time post-induction: 4.5 h; library: site-saturation at positions 5, 18, 19, 20
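Further: peptides expressed intracellularly from a pBAD plasmid library in pooled LB shake-flask culture, induced with 0.3% L-arabinose, DNA abundance read by NGS, three biological replicates, DESeq2 with apeglm shrinkage.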

Sequence	shrunken log2 fold change
RRIRVRPPRLPRPRPRPQLNPRP	-0.292
RRIRIRPPRLPRPRPRPRQYPRP	-0.258
RRIRLRPPRLPRPRPRPVNYPRP	-0.231
RRIRWRPPRLPRPRPRPEWHPRP	0.595
RRIRTRPPRLPRPRPRPPPKPRP	0.82
RRIRMRPPRLPRPRPRPKKMPRP	0.249
RRIRTRPPRLPRPRPRPYRGPRP	-0.519
RRIRARPPRLPRPRPRPLLCPRP	0.612
RRIRKRPPRLPRPRPRPTRGPRP	0.857
RRIRFRPPRLPRPRPRPHHWPRP	-0.499
RRIRKRPPRLPRPRPRPVSIPRP	-0.0178
RRIRRRPPRLPRPRPRPFALPRP	-0.00461
RRIRIRPPRLPRPRPRPPYCPRP	-0.328
RRIRVRPPRLPRPRPRPLDEPRP	-0.0276
RRIRKRPPRLPRPRPRPRDFPRP	0.188
RRIRDRPPRLPRPRPRPPTDPRP	0.564
RRIRARPPRLPRPRPRPVHEPRP	0.00256
RRIRYRPPRLPRPRPRPANHPRP	-0.463
RRIRARPPRLPRPRPRPSGMPRP	0.197
RRIRSRPPRLPRPRPRPQNRPRP	-0.106
RRIRTRPPRLPRPRPRPLSSPRP	-0.0339
RRIRLRPPRLPRPRPRPRYFPRP	-0.319
RRIRWRPPRLPRPRPRPRWEPRP	0.238
RRIRVRPPRLPRPRPRPNAWPRP	0.0914
RRIRARPPRLPRPRPRPYPRPRP	0.00693

Sequence	shrunken log2 fold change
RRIRVRPPRLPRPRPRPGACPRP	0.0218
RRIRFRPPRLPRPRPRPCGWPRP	0.42
RRIRHRPPRLPRPRPRPITYPRP	-0.184
RRIRYRPPRLPRPRPRPAMLPRP	-0.372
RRIRTRPPRLPRPRPRPLSVPRP	-0.0398
RRIRWRPPRLPRPRPRPYDIPRP	-0.00748
RRIRSRPPRLPRPRPRPGKFPRP	-0.111
RRIRCRPPRLPRPRPRPNDMPRP	-0.328
RRIRARPPRLPRPRPRPLDTPRP	0.39
RRIRNRPPRLPRPRPRPVTLPRP	-0.3
RRIRNRPPRLPRPRPRPLLEPRP	0.0286
RRIRMRPPRLPRPRPRPIHMPRP	-0.221
RRIRDRPPRLPRPRPRPYRCPRP	-0.0315
RRIRGRPPRLPRPRPRPNDHPRP	0.143
RRIRSRPPRLPRPRPRPTWIPRP	-0.38
RRIRWRPPRLPRPRPRPPYFPRP	-0.0123
RRIRFRPPRLPRPRPRPDMSPRP	-0.0802
RRIRSRPPRLPRPRPRPNQKPRP	-0.162
RRIRLRPPRLPRPRPRPCAIPRP	-0.218
RRIRPRPPRLPRPRPRPACHPRP	0.111
RRIRCRPPRLPRPRPRPENKPRP	-0.415
RRIRDRPPRLPRPRPRPFHAPRP	-0.108
RRIRPRPPRLPRPRPRPQLEPRP	0.376
RRIRSRPPRLPRPRPRPDVGPRP	0.102
RRIRRRPPRLPRPRPRPECCPRP	0.566

Sequence	shrunken log2 fold change
RRIRCRPPRLPRPRPRPRTAPRP	0.304
RRIRNRPPRLPRPRPRPHCPPRP	-1.27
RRIRLRPPRLPRPRPRPQPDPRP	-0.161
RRIRGRPPRLPRPRPRPFPNPRP	0.26
RRIRPRPPRLPRPRPRPCYCPRP	-0.722
RRIRKRPPRLPRPRPRPFAPPRP	0.792
RRIRARPPRLPRPRPRPEVHPRP	3.57
RRIRYRPPRLPRPRPRPVGIPRP	0.177
RRIRVRPPRLPRPRPRPRWDPRP	0.193
RRIRMRPPRLPRPRPRPAAPPRP	1.65
RRIRTRPPRLPRPRPRPWCFPRP	-0.046
RRIRIRPPRLPRPRPRPCISPRP	-0.32
RRIRHRPPRLPRPRPRPYTQPRP	-0.711
RRIRKRPPRLPRPRPRPIVTPRP	0.102
RRIRCRPPRLPRPRPRPMRRPRP	0.163
RRIRPRPPRLPRPRPRPSRCPRP	0.093
RRIRNRPPRLPRPRPRPTLSPRP	0.145
RRIRMRPPRLPRPRPRPLKEPRP	0.701
RRIRNRPPRLPRPRPRPVKDPRP	-0.01
RRIRQRPPRLPRPRPRPMPFPRP	-0.0697
RRIRGRPPRLPRPRPRPTICPRP	0.601
RRIRDRPPRLPRPRPRPHQVPRP	-0.00776
RRIRMRPPRLPRPRPRPEMGPRP	2.44
RRIRDRPPRLPRPRPRPLKNPRP	0.0245
RRIRRRPPRLPRPRPRPHNTPRP	-0.115

Sequence	shrunken log2 fold change
RRIRNRPPRLPRPRPRPKVMPRP	-0.0516
RRIRARPPRLPRPRPRPHGRPRP	0.0226
RRIRTRPPRLPRPRPRPYGNPRP	-0.0638
RRIRGRPPRLPRPRPRPWKEPRP	0.275
RRIRIRPPRLPRPRPRPCEVPRP	0.0421
RRIRPRPPRLPRPRPRPFADPRP	0.174
RRIRCRPPRLPRPRPRPIPYPRP	-0.0796
RRIRYRPPRLPRPRPRPRDNPRP	-0.712
RRIRMRPPRLPRPRPRPRNKPRP	0.667
RRIRHRPPRLPRPRPRPKTVPRP	-0.154
RRIRFRPPRLPRPRPRPEERPRP	0.477
RRIRNRPPRLPRPRPRPETLPRP	0.373
RRIRIRPPRLPRPRPRPYHDPRP	-0.28
RRIRWRPPRLPRPRPRPTMHPRP	0.454
RRIRMRPPRLPRPRPRPVYTPRP	0.194
RRIRDRPPRLPRPRPRPGYMPRP	-0.649
RRIRYRPPRLPRPRPRPLESPRP	-0.0422
RRIRYRPPRLPRPRPRPWFPPRP	-0.523
RRIRFRPPRLPRPRPRPTQFPRP	0.153
RRIRIRPPRLPRPRPRPQTFPRP	-0.156
RRIRARPPRLPRPRPRPLSHPRP	0.186
RRIRFRPPRLPRPRPRPHQDPRP	-0.0339
RRIRGRPPRLPRPRPRPQLRPRP	0.139
RRIRWRPPRLPRPRPRPKVQPRP	0.00116
RRIRHRPPRLPRPRPRPDMIPRP	-0.0018

Sequence	shrunken log2 fold change
RRIRLRPPRLPRPRPRPVNMPRP	-0.306
RRIRWRPPRLPRPRPRPYYTPRP	-0.899
RRIRWRPPRLPRPRPRPAEPPRP	0.256
RRIRVRPPRLPRPRPRPENGPRP	-0.158
RRIRFRPPRLPRPRPRPFIMPRP	-0.655
RRIRLRPPRLPRPRPRPFQNPRP	-0.0252
RRIRDRPPRLPRPRPRPSSRPRP	-0.0968
RRIRTRPPRLPRPRPRPGNCPRP	0.0747
RRIRERPPRLPRPRPRPHLFPRP	-0.178
RRIRTRPPRLPRPRPRPLVSPRP	-0.0657
RRIRNRPPRLPRPRPRPDWPPRP	0.0862
RRIRCRPPRLPRPRPRPHLWPRP	0.129
RRIRERPPRLPRPRPRPQPEPRP	-0.0263
RRIRERPPRLPRPRPRPNPAPRP	0.0424
RRIRTRPPRLPRPRPRPTYPPRP	0.0247
RRIRKRPPRLPRPRPRPAEAPRP	0.959
RRIRIRPPRLPRPRPRPVNSPRP	-0.319
RRIRVRPPRLPRPRPRPELVPRP	0.14
RRIRARPPRLPRPRPRPRCKPRP	0.51
RRIRQRPPRLPRPRPRPGFIPRP	-0.408
RRIRERPPRLPRPRPRPLSFPRP	0.329
RRIRERPPRLPRPRPRPENFPRP	-0.195
RRIRDRPPRLPRPRPRPVQWPRP	0.0426
RRIRERPPRLPRPRPRPPWTPRP	-0.0555
RRIRMRPPRLPRPRPRPPHFPRP	1.03
